In publication PMC9482650, “Quantitative fragmentomics allow affinity mapping of interactomes” (Nature Communications, 2022):

Key:
Test in all cases: holdup assay
Design in all cases: key: below the threshold = too weak to quantify, mostly under pKd 3.1 to 4
[1] = molecular target: ARHGEF12, Q9NZN5-2
[2] = molecular target: MAGI3_2, Q5TCQ9
[3] = molecular target: T1, GRIP1_4, Q9Y3R0
T1 sequence (Q9Y3R0 467-571, limits assumed, looked up): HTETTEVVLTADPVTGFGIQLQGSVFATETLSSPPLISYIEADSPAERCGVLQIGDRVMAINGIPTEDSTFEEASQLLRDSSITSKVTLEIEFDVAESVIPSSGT

[4] = molecular target: GRID2IP_2, A4D2P6
Chain of GRID2IP_2, A4D2P6 (A4D2P6 272-370): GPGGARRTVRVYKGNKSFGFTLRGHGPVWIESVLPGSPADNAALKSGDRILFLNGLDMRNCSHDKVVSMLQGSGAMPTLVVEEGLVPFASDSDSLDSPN

[5] = molecular target: Inadl_6, Q8NI35
Chain of Inadl_6, Q8NI35 (Q8NI35 1058-1167): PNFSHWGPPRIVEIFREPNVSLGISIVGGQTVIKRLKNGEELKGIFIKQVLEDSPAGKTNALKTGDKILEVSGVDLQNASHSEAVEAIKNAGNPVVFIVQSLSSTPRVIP

[6] = molecular target: DLG1_3, Q12959
Chain of DLG1_3, Q12959 (Q12959 457-571): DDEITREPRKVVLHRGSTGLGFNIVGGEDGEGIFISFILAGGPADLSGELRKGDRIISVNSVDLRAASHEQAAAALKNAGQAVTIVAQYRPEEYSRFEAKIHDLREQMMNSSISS

[7] = molecular target: MAGI1_1, Q96QZ7
Chain of MAGI1_1, Q96QZ7 (Q96QZ7 1-106): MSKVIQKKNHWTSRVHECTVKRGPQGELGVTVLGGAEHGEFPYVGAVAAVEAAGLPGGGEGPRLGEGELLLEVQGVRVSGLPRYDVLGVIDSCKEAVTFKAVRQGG

[8] = molecular target: T2, APBA1_1, Q02410
T2 sequence (Q02410 651-752, limits assumed, looked up): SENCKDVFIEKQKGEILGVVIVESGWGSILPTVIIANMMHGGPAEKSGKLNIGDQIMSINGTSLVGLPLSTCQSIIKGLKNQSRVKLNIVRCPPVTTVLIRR

[9] = molecular target: T3, MPDZ_10, O75970
T3 sequence (O75970 1624-1722, limits assumed, looked up): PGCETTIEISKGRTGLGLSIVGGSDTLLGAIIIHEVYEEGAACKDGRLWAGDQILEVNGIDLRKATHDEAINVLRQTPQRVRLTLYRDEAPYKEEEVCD

[10] = molecular target: Inadl_5, Q8NI35
Chain of Inadl_5, Q8NI35 (Q8NI35 673-780): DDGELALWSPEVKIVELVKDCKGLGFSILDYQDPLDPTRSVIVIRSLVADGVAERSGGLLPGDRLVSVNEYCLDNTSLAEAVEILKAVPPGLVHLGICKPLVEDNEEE

[11] = molecular target: CASK, O14936
Chain of CASK, O14936 (O14936 487-570): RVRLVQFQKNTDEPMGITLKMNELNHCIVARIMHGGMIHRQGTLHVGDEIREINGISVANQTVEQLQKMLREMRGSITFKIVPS

[12] = molecular target: NHERF2_2, Q15599
Chain of NHERF2_2, Q15599 (Q15599 142-238): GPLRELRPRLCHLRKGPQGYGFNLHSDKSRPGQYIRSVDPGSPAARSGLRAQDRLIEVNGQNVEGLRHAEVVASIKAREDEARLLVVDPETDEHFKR

[13] = molecular target: T4, MPP7, Q5T2T1
T4 sequence (Q5T2T1 134-230, limits assumed, looked up): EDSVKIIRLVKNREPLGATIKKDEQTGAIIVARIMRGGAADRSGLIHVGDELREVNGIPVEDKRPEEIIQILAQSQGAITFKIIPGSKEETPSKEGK

[14] = molecular target: GRIP2_4, Q9C0E4
Chain of GRIP2_4, Q9C0E4 (Q9C0E4 446-548): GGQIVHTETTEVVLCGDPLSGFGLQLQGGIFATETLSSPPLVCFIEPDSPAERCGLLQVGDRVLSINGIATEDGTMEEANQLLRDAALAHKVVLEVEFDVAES

[15] = molecular target: T5, MPDZ_12, O75970
T5 sequence (O75970 1857-1958, limits assumed, looked up): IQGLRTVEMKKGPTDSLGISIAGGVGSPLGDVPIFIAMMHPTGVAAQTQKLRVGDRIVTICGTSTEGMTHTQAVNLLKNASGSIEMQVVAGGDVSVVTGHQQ

[16] = molecular target: T6, DFNB31_1, Q9P202
T6 sequence (Q9P202 135-233, limits assumed, looked up): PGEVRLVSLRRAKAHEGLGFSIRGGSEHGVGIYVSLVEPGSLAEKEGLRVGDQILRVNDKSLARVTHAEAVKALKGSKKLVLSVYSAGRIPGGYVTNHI

[17] = molecular target: T7, HTRA3, P83110
T7 sequence (P83110 354-453, limits assumed, looked up): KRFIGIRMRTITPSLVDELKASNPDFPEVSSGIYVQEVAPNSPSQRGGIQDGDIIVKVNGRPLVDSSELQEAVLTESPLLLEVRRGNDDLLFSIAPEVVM

[18] = molecular target: TJP1_3, Q07157
Chain of TJP1_3, Q07157 (Q07157 416-512): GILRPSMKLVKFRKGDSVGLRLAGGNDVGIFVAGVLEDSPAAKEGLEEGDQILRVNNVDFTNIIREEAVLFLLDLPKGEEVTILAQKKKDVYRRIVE

[19] = molecular target: FRMPD2_3, Q68DX3
Chain of FRMPD2_3, Q68DX3 (Q68DX3 1073-1166): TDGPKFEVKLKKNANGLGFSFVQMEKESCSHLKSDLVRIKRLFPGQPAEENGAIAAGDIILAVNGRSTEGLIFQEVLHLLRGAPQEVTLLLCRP

[20] = molecular target: PDLIM1, O00151
Chain of PDLIM1, O00151 (O00151 1-87): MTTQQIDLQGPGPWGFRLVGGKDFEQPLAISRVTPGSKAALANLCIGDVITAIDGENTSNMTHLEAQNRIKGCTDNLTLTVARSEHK

[21] = molecular target: T8, PARD3B_1, Q8TEW8
T8 sequence (Q8TEW8 196-299, limits assumed, looked up): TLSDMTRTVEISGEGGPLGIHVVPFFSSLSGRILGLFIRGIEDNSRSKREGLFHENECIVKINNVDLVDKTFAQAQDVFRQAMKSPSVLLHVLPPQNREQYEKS

[22] = molecular target: T9, SNTG1, Q9NSN8
T9 sequence (Q9NSN8 52-150, limits assumed, looked up): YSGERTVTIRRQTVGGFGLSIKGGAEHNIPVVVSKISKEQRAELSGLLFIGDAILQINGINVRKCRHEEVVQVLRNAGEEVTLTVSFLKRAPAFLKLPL

[23] = molecular target: Inadl_4, Q8NI35
Chain of Inadl_4, Q8NI35 (Q8NI35 547-651): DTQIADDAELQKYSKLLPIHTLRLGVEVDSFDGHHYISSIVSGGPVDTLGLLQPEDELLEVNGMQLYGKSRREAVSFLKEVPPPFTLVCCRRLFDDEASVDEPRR

[24] = molecular target: HTRA1, Q92743
Chain of HTRA1, Q92743 (Q92743 360-477): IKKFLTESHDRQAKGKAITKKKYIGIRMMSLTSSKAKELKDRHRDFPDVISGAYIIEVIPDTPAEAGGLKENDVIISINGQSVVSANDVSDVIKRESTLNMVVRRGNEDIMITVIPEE

[25] = molecular target: Inadl_3, Q8NI35
Chain of Inadl_3, Q8NI35 (Q8NI35 359-469): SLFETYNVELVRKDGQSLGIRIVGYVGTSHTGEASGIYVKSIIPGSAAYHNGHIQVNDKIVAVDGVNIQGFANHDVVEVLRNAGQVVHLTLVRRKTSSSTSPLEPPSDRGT

[26] = molecular target: T10, PTPN13_1, Q12923
T10 sequence (Q12923 1088-1188, limits assumed, looked up): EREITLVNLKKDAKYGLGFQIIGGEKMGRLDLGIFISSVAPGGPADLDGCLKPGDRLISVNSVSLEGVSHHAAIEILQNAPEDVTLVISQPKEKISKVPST

[27] = molecular target: T11, LIN7C, Q9NUP9
T11 sequence (Q9NUP9 88-185, limits assumed, looked up): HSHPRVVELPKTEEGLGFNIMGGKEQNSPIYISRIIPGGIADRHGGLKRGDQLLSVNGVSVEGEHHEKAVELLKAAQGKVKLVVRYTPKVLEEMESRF

[28] = plain residues with an end cap or a label only (N-terminal biotin on a linker: ahx)
[29] = plain residues with an end cap or a label only (N-terminal biotin on a linker: ado-ado)
[30] = plain residues with an end cap or a label only (N-terminal biotin on a linker: ttds)

Measured: pKd

Chain of MAGI3_2, Q5TCQ9 (Q5TCQ9 398-503): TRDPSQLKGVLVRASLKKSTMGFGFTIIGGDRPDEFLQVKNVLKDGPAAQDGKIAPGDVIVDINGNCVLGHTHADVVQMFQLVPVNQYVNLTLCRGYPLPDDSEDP
Chain of ARHGEF12, Q9NZN5-2 (Q9NZN5 other isoform, or with tags, fused parts or gaps): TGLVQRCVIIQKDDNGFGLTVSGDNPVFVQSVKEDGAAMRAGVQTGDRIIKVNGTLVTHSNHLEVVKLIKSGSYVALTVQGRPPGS

B1: CNTNAP4, Q9C0A0 (peptide)
chain: VNENQKEYFF
3.95: [25]; [28]
5.02: [13]; [28]
4.72: [24]; [28]
3.61: [10]; [28]
4.57: [21]; [28]
below the threshold: [1]; [28] | [2]; [28] | [3]; [28] | [4]; [28] | [6]; [28] | [7]; [28] | [8]; [28] | [9]; [28] | [12]; [28] | [14]; [28] | [15]; [28] | [16]; [28] | [17]; [28] | [18]; [28] | [19]; [28] | [20]; [28] | [22]; [28] | [23]; [28] | [26]; [28] | [27]; [28]
3.86: [5]; [28]
3.79: [11]; [28]

B2: FMNL3, Q8IVF7 (peptide)
chain: DAAHHDESNC
below the threshold: [1]; [29] | [2]; [29] | [3]; [29] | [4]; [29] | [5]; [29] | [6]; [29] | [7]; [29] | [8]; [29] | [9]; [29] | [10]; [29] | [11]; [29] | [12]; [29] | [13]; [29] | [14]; [29] | [15]; [29] | [16]; [29] | [17]; [29] | [18]; [29] | [19]; [29] | [20]; [29] | [21]; [29] | [22]; [29] | [23]; [29] | [25]; [29] | [26]; [29] | [27]; [29]
3.76: [24]; [29]

B3: SLC1A3, P43003 (peptide)
chain: EKPIDSETKM
below the threshold: [1]; [29] | [2]; [29] | [3]; [29] | [4]; [29] | [5]; [29] | [6]; [29] | [7]; [29] | [8]; [29] | [9]; [29] | [10]; [29] | [11]; [29] | [13]; [29] | [14]; [29] | [15]; [29] | [17]; [29] | [18]; [29] | [19]; [29] | [20]; [29] | [21]; [29] | [22]; [29] | [23]; [29] | [24]; [29] | [25]; [29] | [26]; [29] | [27]; [29]
4.47: [12]; [29]
3.48: [16]; [29]

B4: RALBP1, Q15311 (peptide)
chain: PSRDRKETSI
4.76: [2]; [30]
3.69: [4]; [30]
4.35: [16]; [30]
3.76: [21]; [30] | [22]; [30]
below the threshold: [3]; [30] | [5]; [30] | [7]; [30] | [8]; [30] | [9]; [30] | [10]; [30] | [11]; [30] | [12]; [30] | [13]; [30] | [14]; [30] | [15]; [30] | [17]; [30] | [18]; [30] | [19]; [30] | [20]; [30] | [23]; [30] | [24]; [30] | [25]; [30] | [26]; [30]
4.28: [6]; [30]
3.9: [27]; [30]
4.06: [1]; [30]
